Measurements: patent US12319742 (SHATTUCK LABS, dated 2025)

Tests used:
[1] = target: T1, biotinylated recombinant human TNFRSF25-His tagged (Acro #TN5-H52H3) (human, UniProt Q93038 25-199, biotinylated); assay: MSD competition; TNFRSF25 on plate, antibody titrated, then recombinant TL1A (TL1A-rabbit Fc) as competitor
T1 construct: treated as the same protein; also called recombinant biotin-conjugated human TNFRSF25 protein; DR3
T1 sequence (looked up): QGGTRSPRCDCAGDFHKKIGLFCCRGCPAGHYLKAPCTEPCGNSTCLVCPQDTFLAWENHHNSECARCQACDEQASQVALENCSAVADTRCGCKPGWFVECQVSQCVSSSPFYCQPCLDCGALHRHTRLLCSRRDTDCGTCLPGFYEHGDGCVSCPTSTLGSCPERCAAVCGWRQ
Protocol: Figure 6: FIG. 6. […] Human TNFRSF25 was precoated on MSD assay plates followed by incubating with various concentrations of anti-TNFRSF25 antibodies.

[2] = target: T2, CD40; assay: flow cytometry on engineered mammalian cells overexpressing CD40, APC anti-human Fc
T2 construct: member of group m24; also called CD40 overexpressed in engineered mammalian cells

[3] = target: T1, biotinylated recombinant human …; assay: SPR (Biacore 8K); biotinylated TNFRSF25-His on streptavidin chip SA, SL-061 flowed; 1:1 binding
Protocol: (§1) (FIG. 5A) BLI assay was performed using the Octet Red 96e instrument. Streptavidin biosensors were loaded with biotinylated recombinant human TNFRSF25-His tagged (Acro #TN5-H52H3) as the ligand. […] (FIG. 5B) SPR was performed on a Biacore 8K instrument.

[4] = target: T3, 4-1BB; assay: flow cytometry on engineered mammalian cells overexpressing 4-1BB, APC anti-human Fc
T3 construct: member of group m24; also called 4-1BB overexpressed in engineered mammalian cells

[5] = target: T4, LTbR; assay: flow cytometry on engineered mammalian cells overexpressing LTbR, APC anti-human Fc
T4 construct: member of group m24; also called LTbR overexpressed in engineered mammalian cells

[6] = target: T5, biotinylated recombinant human FcRn-His tagged protein (Acro #FCM-H82W7) (human, UniProt P55899 24-297; P61769 21-119, biotinylated); assay: BLI/Octet; biotinylated human FcRn-His on streptavidin biosensor; pH 6.0
T5 construct: also called hFcRn; neonatal Fc receptor
Protocol: Figure 5D: FIG. 5D. FcRn binding kinetics by anti-TNFRSF25 antibodies. BLI assay was performed using the Octet Red 96e instrument. Streptavidin biosensors were loaded with biotinylated recombinant human(h) FcRn-His tagged protein (Acro #FCM-H82W7) as the ligand. During the association phase, biosensors were incubated with anti-DR3 candidate antibodies at various concentrations for 600 seconds, followed by a 600-second dissociation phase.
To detect binding of certain whole antibodies to the neonatal Fc receptor (FcRn) at neutral and acidic pH conditions, streptavidin biosensors were loaded with biotinylated recombinant human FcRn-His tagged protein (Acro #FCM-H82W7) as the ligand. During the association phase, biosensors were incubated with anti-TNFRSF25 antibodies at various concentrations for 600 seconds, followed by a 600 second dissociation phase.

[7] = target: FcγR1 (CD64), BLI reagent (UniProt P12314 16-288, limits assumed); assay: BLI; antibody as analyte at 300 nM on FcγR1
[8] = target: T6, TNFRSF25 on lymphocytes in human PBMCs (human, UniProt Q93038 25-417); assay: flow cytometry MFI on NK cells of human PBMCs, no stimulation, APC anti-human Fc
T6 construct: whole, on cells; also called TNFRSF25 on CD4+ and CD8+ T cells and NK cells
T6 sequence (looked up): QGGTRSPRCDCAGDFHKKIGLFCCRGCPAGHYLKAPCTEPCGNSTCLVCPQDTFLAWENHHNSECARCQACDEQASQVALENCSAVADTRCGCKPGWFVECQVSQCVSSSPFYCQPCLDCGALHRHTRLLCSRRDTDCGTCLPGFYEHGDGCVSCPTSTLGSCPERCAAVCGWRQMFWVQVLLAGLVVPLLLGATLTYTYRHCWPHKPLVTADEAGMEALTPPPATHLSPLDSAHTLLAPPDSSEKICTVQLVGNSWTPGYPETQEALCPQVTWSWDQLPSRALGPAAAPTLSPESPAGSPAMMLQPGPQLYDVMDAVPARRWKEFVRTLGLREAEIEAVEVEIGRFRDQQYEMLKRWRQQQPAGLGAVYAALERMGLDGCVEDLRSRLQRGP

[9] = target: T6, TNFRSF25 on lymphocytes in human PBMCs; assay: flow cytometry MFI on CD8+ T cells of human PBMCs (panel 1003_CD8+T), IL12+IL18 stimulation 24 h, APC anti-human Fc
Protocol: Human PBMCs were stimulated with either IL12+IL18 or anti-CD3/CD28 for 24 hours to assess binding of anti-TNFRSF25 to lymphocyte subsets.
Figure 9: FIG. 9. […] Figure 10: FIG. 10.

[10] = target: T6, TNFRSF25 on lymphocytes in human PBMCs; assay: flow cytometry MFI on CD8+ T cells of human PBMCs (panel 1003_CD8+T), no stimulation, APC anti-human Fc
[11] = target: T1, biotinylated recombinant human …; assay: SPR (Biacore); biotinylated TNFRSF25-His on streptavidin chip SA; 2 min association, 30 min dissociation; 1:1 binding
Protocol: as §1

[12] = target: T7, OX40; assay: flow cytometry on engineered mammalian cells overexpressing OX40, APC anti-human Fc
T7 construct: member of group m24; also called OX40 overexpressed in engineered mammalian cells
T7 chain: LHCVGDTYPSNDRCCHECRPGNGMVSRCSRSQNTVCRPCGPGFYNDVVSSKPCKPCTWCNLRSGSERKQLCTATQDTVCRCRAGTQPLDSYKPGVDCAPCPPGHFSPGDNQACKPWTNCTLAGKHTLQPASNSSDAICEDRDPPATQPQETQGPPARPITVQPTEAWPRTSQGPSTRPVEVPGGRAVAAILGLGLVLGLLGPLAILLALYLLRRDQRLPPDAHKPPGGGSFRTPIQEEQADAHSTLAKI

T5 sequence (P55899 24-297 limits assumed, chain 1 of 2): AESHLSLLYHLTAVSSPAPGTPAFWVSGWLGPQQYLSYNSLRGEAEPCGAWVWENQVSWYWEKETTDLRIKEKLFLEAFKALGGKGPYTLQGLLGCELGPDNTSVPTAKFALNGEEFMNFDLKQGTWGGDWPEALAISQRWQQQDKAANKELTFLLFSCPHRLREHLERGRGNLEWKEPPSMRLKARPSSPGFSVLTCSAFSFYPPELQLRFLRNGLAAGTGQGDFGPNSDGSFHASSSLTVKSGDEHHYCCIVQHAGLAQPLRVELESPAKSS
T5 sequence (P61769 21-119 limits assumed, chain 2 of 2): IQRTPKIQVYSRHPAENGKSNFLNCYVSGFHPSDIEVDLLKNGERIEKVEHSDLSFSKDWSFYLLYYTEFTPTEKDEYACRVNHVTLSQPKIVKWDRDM
Sequence of FcγR1 (CD64), BLI reagent (P12314 16-288 limits assumed): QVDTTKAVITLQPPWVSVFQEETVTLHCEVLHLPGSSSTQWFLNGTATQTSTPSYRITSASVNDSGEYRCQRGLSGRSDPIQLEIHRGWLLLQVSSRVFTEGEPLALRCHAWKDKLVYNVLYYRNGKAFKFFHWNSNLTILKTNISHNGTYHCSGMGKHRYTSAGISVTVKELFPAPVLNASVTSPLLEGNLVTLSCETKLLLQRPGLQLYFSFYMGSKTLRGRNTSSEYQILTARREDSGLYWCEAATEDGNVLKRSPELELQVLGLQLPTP
T3 sequence (chain, as listed by the source limits assumed): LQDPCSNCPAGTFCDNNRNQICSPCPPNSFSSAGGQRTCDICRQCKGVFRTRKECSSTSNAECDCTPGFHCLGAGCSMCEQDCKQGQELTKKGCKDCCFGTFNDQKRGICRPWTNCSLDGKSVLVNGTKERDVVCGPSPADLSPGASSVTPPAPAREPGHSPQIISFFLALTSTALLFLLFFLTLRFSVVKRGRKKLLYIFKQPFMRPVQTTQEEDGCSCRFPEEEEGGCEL
T2 sequence (chain, as listed by the source limits assumed): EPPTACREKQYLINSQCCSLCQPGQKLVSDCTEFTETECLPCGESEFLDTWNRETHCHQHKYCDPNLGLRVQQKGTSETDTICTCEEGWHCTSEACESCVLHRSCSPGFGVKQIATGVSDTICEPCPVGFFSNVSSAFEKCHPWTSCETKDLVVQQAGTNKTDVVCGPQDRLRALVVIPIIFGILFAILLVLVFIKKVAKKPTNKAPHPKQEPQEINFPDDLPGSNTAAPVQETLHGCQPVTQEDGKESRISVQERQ

B1: SL-061 (antibody, human IgG1, kappa)
heavy: QVQLQQSGPGLVKPSQTLSLTCAISGDSVSGYSAAWNWIRQSPSRGLEWLGRTYYRSKWYNDYAVSVKSRITINPDTSKNQFSLQLNSVTPEDTAVYYCARDYYGSESYYNRGYYYYGMDVWGQGTTVTVSSASTKGPSVFPLAPSSKSTSGGTAALGCLVKDYFPEPVTVSWNSGALTSGVHTFPAVLQSSGLYSLSSVVTVPSSSLGTQTYICNVNHKPSNTKVDKKVEPKSCDKTHTCPPCPAPEAAGAPSVFLFPPKPKDTLMISRTPEVTCVVVDVSHEDPEVKFNWYVDGVEVHNAKTKPREEQYNSTYRVVSVLTVLHQDWLNGKEYKCKVSNKALPAPIEKTISKAKGQPREPQVYTLPPSREEMTKNQVSLTCLVKGFYPSDIAVEWESNGQPENNYKTTPPVLDSDGSFFLYSKLTVDKSRWQQGNVFSCSVMHEALHNHYTQKSLSLSPGK
light: AIQLTQSPSSLSASVGDRVTITCRASPGISSALAWYQQKPGKAPKLLMYDESSQESGVPSRFSGSGSGTDFTLTISSLQPEDFATYYCQQFNDYPLTFGGGTKVEIKRTVAAPSVFIFPPSDEQLKSGTASVVCLLNNFYPREAKVQWKVDNALQSGNSQESVTEQDSKDSTYSLSSTLTLSKADYEKHKVYACEVTHQGLSSPVTKSFNRGEC
notes: Same variable regions as SL-033; IgG1 with L234A/L235A+G237A; also called clone 061; SL-061 (L234A/L235A+G237A)
IC50 [1]: 0.056 nM
binding result [2]: no binding (tested: about 20 nM)
Kd [3]: 0.00136 nM
binding result [4]: no binding (tested: about 20 nM)
binding result [5]: no binding (tested: about 20 nM)
Kd [6]: 4.41 nM
koff [6]: 0.00104 s⁻¹
kon [6]: 235000 M⁻¹ s⁻¹
binding result [7]: no binding (tested: 300 nM)
EC50 [8]: 0.078 nM
EC50 [9]: 0.043 nM
EC50 [10]: 0.068 nM
koff [11]: 3.89e-06 s⁻¹
kon [11]: 2.85e+06 M⁻¹ s⁻¹
binding result [12]: no binding (tested: about 20 nM)
